Data taken from US20160067347A1, “APJ RECEPTOR AGONISTS AND USES THEREOF” (AMGEN INC., priority 2012, published 2016).
Each block holds one compound with its values, some of them ahead of it. *1 amine or outer side, *2 acyl side, *3 side chain or, on linkers, in order; H or OH if unused. Where a SMILES comes first, the peptide text is derived from it. Primed or numbered codes have the meaning given here. Where no end group is shown, it is not given here. [ ]: non-standard residue; d: D form. Atz = (S)-2-amino-3-(1H-1,2,3-triazol-4-yl)propanoyl residue, substituent (PEG) on triazole N1, O=C([C@H](Cc1cn([*:3])nn1)N[*:1])[*:2]; Oic = O=C(O)[C@@H]1C[C@@H]2CCCC[C@@H]2N1; Phe(4-Cl) = N[C@@H](Cc1ccc(Cl)cc1)C(=O)O; hArg = N=C(N)NCCCC[C@H](N)C(=O)O; Cha = N[C@@H](CC1CCCCC1)C(=O)O; 40K‑mPEG = 40 kDa methoxy-PEG; pGlu = O=C1CC[C@@H](C(=O)O)N1; PEG11′ = not defined here; PEG23′ = not defined here; PEG35′ = not defined here; PEG47′ = not defined here; Nle = CCCC[C@H](N)C(=O)O

Assays:
[1] = target: T1, rat APJ receptor (Rattus norvegicus, UniProt Q9JHG3); assay: [35S]GTPγS assay, membranes from stable cell lines, rat APJ; assay type: biochemical; settings: for potency relative to monopeptide (SEQ ID NO: 494): FIG. 13, PEGylated bis-peptides on low molecular weight monodispersed PEG; for in vitro potency relative to endogenous pyr apelin 13 (SEQ ID NO: 128) / in vitro potency, mono vs bis vs tetrakis 20 kDa PEG peptides: FIG. 11, in vitro rat GTPγS assay
T1 construct: expressed in transfected cells; CHO is named only for the cAMP assay
T1 sequence (Q9JHG3 1-377): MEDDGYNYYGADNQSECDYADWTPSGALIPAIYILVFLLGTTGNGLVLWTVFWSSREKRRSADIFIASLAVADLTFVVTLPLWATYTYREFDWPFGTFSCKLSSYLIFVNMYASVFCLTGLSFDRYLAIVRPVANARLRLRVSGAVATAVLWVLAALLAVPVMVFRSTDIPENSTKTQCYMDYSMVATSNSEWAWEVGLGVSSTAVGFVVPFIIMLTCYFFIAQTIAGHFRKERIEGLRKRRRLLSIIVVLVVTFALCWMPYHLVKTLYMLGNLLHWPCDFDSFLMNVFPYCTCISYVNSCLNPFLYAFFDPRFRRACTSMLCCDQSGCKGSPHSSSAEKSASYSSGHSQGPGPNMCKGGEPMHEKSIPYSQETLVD
Protocol: To assay for GTP, membranes were prepared from stable cell lines and used to determine the efficacy/potency of the modified peptides. The optimal experimental conditions for the concentrations of GDP, MgCl2 and NaCl in the assay buffer were initially determined. The membranes were incubated with modified peptides in the assay buffer. The reaction was initiated by addition of [^35S] GTPγS in the absence or presence of peptides and incubated at room temperature for 90 min. […] Bound [^35S] GTPγS was separated from free radiolabel by filtration. The filter bound radioactivity was determined by liquid scintillation counting.
A series of PEGylated peptides were prepared and screened in vitro to explore the effects of PEG size and peptide valency on potency and efficacy in the GTPγS assay. In the assay 20 kDA and 40 kDA PEG were compared (FIG. 10).
Additionally mono- and multivalent bis, and tetrakis-peptide conjugated PEGS were prepared to explore peptide valency. […]

[2] = in vitro; settings: rat
Protocol: Apelin peptides were spiked into freshly prepared mouse, rat, dog and human EDTA plasma to a final concentration of 5 μM. The plasma samples were then incubated at 37° C. over a period of 4 hr. Up to 8 time points were sampled to facilitate estimation of in vitro half life in plasma matrices. In a typical experiment, aliquot of 100 μL of plasma sample was taken from the incubation vial, followed by addition of 300 μL of MeOH containing internal standard. The quenched sample was centrifuged at 5500 g for 15 min after 15 min vortex in room temperature. The supernatant was then analyzed by high resolution LC-MS.

[3] = FIGURE 4B
From the text: Table printed on a drawing sheet, FIGURE 4B
Section band inside the table: Peptides with thioether linker and 20 kDa PEG modification
The patent's description of the figure: FIGS. 4A-B. In vitro stability of APJ agonists in plasma.
First reader's note: Rows 3 and 9 of the grid are section headings spanning all columns (linker type of the 20 kDa PEGylated peptides).

potency relative to monopeptide (SEQ ID NO: 494) [1]: increased potency
Compound: SEQ ID NO: 136: PEGylated bis-peptide, 2.2 kDa PEG conjugate ([PEG47′][Atz]KFRRQRP[hArg][Cha]SHKG[Oic][Nle]P[Phe(4-Cl)]; not fully specified (residue 1); numbers in words are those of the source; also: bis-peptide: two peptide chains joined through PEG47 on Atz)

Compound: CCCC[C@H](NC(=O)[C@@H]1CCCN1C(=O)CNC(=O)[C@H](CCCCN)NC(=O)[C@H](Cc1cn(CCOCCOCCOCCOCCOCCOCCOCCOCCOCCOCCN)nn1)NC(=O)[C@H](Cc1ccccc1)NC(=O)[C@H](CC(C)C)N(C)C(=O)[C@H](CCCCNC(=N)N)NC(=O)[C@@H]1CCCN1C(=O)[C@H](CCCNC(=N)N)NC(=O)[C@@H]1CCC(=O)N1)C(=O)N[C@H](Cc1ccccc1)C(=O)O [compound 29]
remaining at 1 h, 5 μM ([2]; plasma): 50%

Compound: SEQ ID NO: 130: 20 kDa PEG-bis(Atz-KFRRQRP[hArg][Cha]SHKG[Oic][Nle]P[4-Cl—F]) (KFRRQRP[hArg][Cha]SHKG[Oic][Nle]P[Phe(4-Cl)]; not fully specified (N-terminus); also: 20 kDa PEG carries two peptide copies)
in vitro potency relative to endogenous pyr apelin 13 (SEQ ID NO: 128) [1]: significantly more potent
in vitro potency, mono vs bis vs tetrakis 20 kDa PEG peptides [1]: approximately equipotent

Compound: SEQ ID NO: 131: 20 kDa PEG-tetrakis(Atz-KFRRQRP[hArg][Cha]SHKG[Oic][Nle]P[4-Cl—F]) (KFRRQRP[hArg][Cha]SHKG[Oic][Nle]P[Phe(4-Cl)]; not fully specified (N-terminus); also: 20 kDa PEG carries four peptide copies)
in vitro potency relative to endogenous pyr apelin 13 (SEQ ID NO: 128) [1]: significantly more potent
in vitro potency, mono vs bis vs tetrakis 20 kDa PEG peptides [1]: approximately equipotent

Compound: CCCC[C@H](NC(=O)[C@@H]1C[C@@H]2CCCC[C@@H]2N1C(=O)CNC(=O)[C@H](CCCCN)NC(=O)[C@H](Cc1c[nH]cn1)NC(=O)[C@H](Cc1cn(CCOCCOCCOCCOCCOCCOCCOCCOCCOCCOCCN)nn1)NC(=O)[C@H](CC(C)C)N(C)C(=O)[C@H](CCCCNC(=N)N)NC(=O)[C@@H]1CCCN1C(=O)[C@H](CCCNC(=N)N)NC(=O)[C@@H]1CCC(=O)N1)C(=O)N1CCC[C@H]1C(=O)N[C@@H](Cc1ccc(Cl)cc1)C(=O)O [compound 36]
remaining at 1 h, 5 μM ([2]; plasma): 88%

Compound: Thiopropionyl(20K-mPEG)- KFRRQRP[hArg][Cha]SHKG[Oic][Nle]P[4-Cl-F] [compound 44]
in vitro plasma stability (t1/2, min) | DOG [3]: 172 min
in vitro plasma stability (t1/2, min) | HUMAN [3]: 142 min
in vitro plasma stability (t1/2, min) | MOUSE [3]: 37 min
in vitro plasma stability (t1/2, min) | RAT [3]: 180 min

potency relative to monopeptide (SEQ ID NO: 494) [1]: reduced potency
Compound: SEQ ID NO: 133: PEGylated bis-peptide, the shortest PEG conjugate (~0.6 kDa PEG) ([PEG11′][Atz]KFRRQRP[hArg][Cha]SHKG[Oic][Nle]P[Phe(4-Cl)]; not fully specified (residue 1); numbers in words are those of the source; also: bis-peptide: two peptide chains joined through PEG11 on Atz)

remaining at 1 h, 5 μM ([2]; rat EDTA plasma): 64.6%
Compound: CCCC[C@H](NC(=O)[C@@H]1CCCN1C(=O)CNC(=O)[C@H](CCCCN)NC(=O)[C@H](Cc1c[nH]cn1)NC(=O)[C@H](CO)NC(=O)[C@H](CC1CCCCC1)NC(=O)[C@H](CCCCNC(=N)N)NC(=O)[C@@H]1CCCN1C(=O)[C@H](CCCNC(=N)N)NC(=O)[C@@H]1CCC(=O)N1)C(=O)N[C@@H](Cc1ccc(Cl)cc1)C(=O)O [compound 32] ([pGlu]RP[hArg][Cha]SHKGP[Nle][Phe(4-Cl)]-OH; C-terminus assumed)

potency relative to monopeptide (SEQ ID NO: 494) [1]: increased potency
Compound: SEQ ID NO: 135: PEGylated bis-peptide, 1.7 kDa PEG conjugate ([PEG35′][Atz]KFRRQRP[hArg][Cha]SHKG[Oic][Nle]P[Phe(4-Cl)]; not fully specified (residue 1); numbers in words are those of the source; also: bis-peptide: two peptide chains joined through PEG35 on Atz)

Compound: Thiopropionyl(20K-mPEG)- RQRP[hArg][Cha]SHKG[Oic][Nle]P[4-Cl-F] [compound 47]
in vitro plasma stability (t1/2, min) | DOG [3]: 279 min
in vitro plasma stability (t1/2, min) | HUMAN [3]: 300 min
in vitro plasma stability (t1/2, min) | MOUSE [3]: 41 min

Compound: SEQ ID NO: 129: 20 kDa PEG-mono(Atz-KFRRQRP[hArg][Cha]SHKG[Oic][Nle]P[4-Cl—F]) (XKFRRQRPRLSHKGPMPF; not fully specified; 20 kDa PEG, Atz linker; non-natural residues; source: /note="N-term may or may not be modified by conjugation linker, an acyl group, an aryl group, an alkyl group, NPeg11, a PEG derivative or other serum half-life prolonging group"; MOD_RES (1)..(1): Atz)
in vitro potency relative to endogenous pyr apelin 13 (SEQ ID NO: 128) [1]: significantly more potent
in vitro potency, mono vs bis vs tetrakis 20 kDa PEG peptides [1]: approximately equipotent

Compound: CCCC[C@H](NC(=O)[C@@H]1C[C@@H]2CCCC[C@@H]2N1C(=O)CNC(=O)[C@H](CCCCN)NC(=O)[C@H](Cc1c[nH]cn1)NC(=O)[C@H](Cc1cn(CCOCCOCCOCCOCCOCCOCCOCCOCCOCCOCCN)nn1)NC(=O)[C@H](CC(C)C)N(C)C(=O)[C@H](CCCCNC(=N)N)NC(=O)[C@@H]1CCCN1C(=O)[C@H](CCCNC(=N)N)NC(=O)[C@@H]1CCC(=O)N1)C(=O)N[C@@H](Cc1ccc(Cl)cc1)C(=O)O [compound 35]
remaining at 1 h, 5 μM ([2]; plasma): 82%

Compound: CCCC[C@H](NC(=O)[C@@H]1C[C@@H]2CCCC[C@@H]2N1C(=O)CNC(=O)[C@H](CCCCN)NC(=O)[C@H](Cc1c[nH]cn1)NC(=O)[C@H](Cc1cn(CCOCCOCCOCCOCCOCCOCCOCCOCCOCCOCCN)nn1)NC(=O)[C@H](CC1CCCCC1)NC(=O)[C@H](CCCCNC(=N)N)NC(=O)[C@@H]1CCCN1C(=O)[C@H](CCCNC(=N)N)NC(=O)[C@@H]1CCC(=O)N1)C(=O)N1CCC[C@H]1C(=O)N[C@@H](Cc1ccc(Cl)cc1)C(=O)O [compound 34]
remaining at 1 h, 5 μM ([2]; plasma): 72%

potency relative to monopeptide (SEQ ID NO: 494) [1]: increased potency
Compound: SEQ ID NO: 134: PEGylated bis-peptide, 1 kDa PEG conjugate ([PEG23′][Atz]KFRRQRP[hArg][Cha]SHKG[Oic][Nle]P[Phe(4-Cl)]; not fully specified (residue 1); numbers in words are those of the source; also: bis-peptide: two peptide chains joined through PEG23 on Atz)

Emax relative to the 20 kDa PEGylated peptide ([1]; FIG. 10): 84 % of 20 kDa
Compound: SEQ ID NO: 474: 40 Kda PEGylated peptide compared with the 20 kDa PEGylated peptide SEQ ID NO: 24 ({40K‑mPEG-Thiopropionyl}-KFRRQRP[hArg][Cha]SHKG[Oic][Nle]P[Phe(4-Cl)]-OH)

Compound: Thiopropionyl(20K-mPEG)- QRP[hArg][Cha]SHKG[Oic][Nle]P[4-Cl-F] [compound 48]
in vitro plasma stability (t1/2, min) | DOG [3]: 219 min
in vitro plasma stability (t1/2, min) | HUMAN [3]: 307 min
in vitro plasma stability (t1/2, min) | MOUSE [3]: 53 min
in vitro plasma stability (t1/2, min) | RAT [3]: 303 min
